Columns and labels:
[1] = molecular target: IL-12 receptor of human T cells (human, UniProt P42701 24-662; Q99665 24-862); assay: cell-based or functional assay
[2] = molecular target: T1, human FAP (fibroblast activation protein alpha) overexpressed in HEK293 cells (HEK293-hFAP) (human, UniProt Q12884 1-760); assay: flow cytometry on HEK293-hFAP cells, detection with anti-human IgG antibody
T1 construct: whole, on cells; also called human FAP-expressing cell line
T1 sequence (looked up): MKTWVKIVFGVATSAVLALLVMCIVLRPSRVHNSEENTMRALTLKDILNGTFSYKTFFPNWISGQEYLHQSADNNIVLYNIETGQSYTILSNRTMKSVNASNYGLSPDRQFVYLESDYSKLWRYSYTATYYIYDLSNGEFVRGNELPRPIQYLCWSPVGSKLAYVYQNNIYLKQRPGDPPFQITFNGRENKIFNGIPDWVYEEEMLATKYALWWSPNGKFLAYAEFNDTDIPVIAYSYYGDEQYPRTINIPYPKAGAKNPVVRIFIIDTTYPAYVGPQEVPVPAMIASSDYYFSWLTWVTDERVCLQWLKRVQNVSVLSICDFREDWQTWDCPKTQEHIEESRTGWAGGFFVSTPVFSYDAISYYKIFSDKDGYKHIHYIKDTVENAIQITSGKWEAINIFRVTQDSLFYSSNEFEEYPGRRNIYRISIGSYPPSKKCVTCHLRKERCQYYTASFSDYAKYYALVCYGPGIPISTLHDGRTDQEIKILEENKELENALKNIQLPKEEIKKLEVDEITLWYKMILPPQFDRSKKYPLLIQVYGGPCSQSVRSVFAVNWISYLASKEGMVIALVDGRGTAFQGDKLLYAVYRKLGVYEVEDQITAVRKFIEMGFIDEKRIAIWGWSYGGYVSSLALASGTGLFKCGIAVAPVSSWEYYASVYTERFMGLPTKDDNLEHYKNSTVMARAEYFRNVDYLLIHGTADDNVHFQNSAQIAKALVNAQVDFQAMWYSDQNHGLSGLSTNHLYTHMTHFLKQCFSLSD
Method: (§1) Specifically, the cell line was prepared by suspending in a FACS buffer solution at 1×10⁵ cells/100 μl, and treated with 1 μg each of T1.12, T1.01, T1.02 and T1.03. The cells were washed twice with a FACS buffer solution. The cells were stained with an anti-human IgG antibody (Biolegend). The negative control was stained only with an anti-human IgG antibody (Biolegend). The expression rates of the stained cells were measured using BD LSR and analyzed using a FlowJo software.

[3] = molecular target: T1, human FAP (fibroblast activation …); assay: flow cytometry on HEK293-hFAP cells, 1 µg protein per 1x10^5 cells, anti-human IgG detection
Method: as §1

[4] = molecular target: T2, IL-12 receptor beta 1-biotin (recombinant human IL-12 receptor protein) (human, UniProt P42701 24-545, limits assumed, biotin (site not stated)); assay: ELISA, fusion protein coated in serial dilution, 1 nM IL-12Rβ1-biotin, streptavidin-HRP, OD at 450 nm
T2 construct: Bought reagent; also called IL-12Rβ1-Biotin
Method: (§2) (ii) The wells were washed with a wash solution, and then blocking was performed for 1 hour with 1% BSA (Bovine serum albumin, Sigma) solution.
(§3) (iii) The wells were washed with a wash solution, and then treated with 1 nM IL-12 receptor beta 1-biotin (IL-12Rβ1-Biotin; Acrobiosystems, Newark, USA) for 2 hours.
(§4) (iv) The wells were washed with a wash solution, and then treated with streptavidin-HRP for 20 minutes.

recombinant human FAP [5] = molecular target: T3, recombinant human FAP (human, UniProt Q12884 26-760); assay: SPR, fusion protein captured by anti-human IgG (Fc) on a CM5 chip, hFAP his as analyte 0.78125-50 nM, 1:1 binding model
T3 construct: Soluble analyte in SPR; The description calls FAP a homodimer; also called rhFAP
T3 sequence (looked up): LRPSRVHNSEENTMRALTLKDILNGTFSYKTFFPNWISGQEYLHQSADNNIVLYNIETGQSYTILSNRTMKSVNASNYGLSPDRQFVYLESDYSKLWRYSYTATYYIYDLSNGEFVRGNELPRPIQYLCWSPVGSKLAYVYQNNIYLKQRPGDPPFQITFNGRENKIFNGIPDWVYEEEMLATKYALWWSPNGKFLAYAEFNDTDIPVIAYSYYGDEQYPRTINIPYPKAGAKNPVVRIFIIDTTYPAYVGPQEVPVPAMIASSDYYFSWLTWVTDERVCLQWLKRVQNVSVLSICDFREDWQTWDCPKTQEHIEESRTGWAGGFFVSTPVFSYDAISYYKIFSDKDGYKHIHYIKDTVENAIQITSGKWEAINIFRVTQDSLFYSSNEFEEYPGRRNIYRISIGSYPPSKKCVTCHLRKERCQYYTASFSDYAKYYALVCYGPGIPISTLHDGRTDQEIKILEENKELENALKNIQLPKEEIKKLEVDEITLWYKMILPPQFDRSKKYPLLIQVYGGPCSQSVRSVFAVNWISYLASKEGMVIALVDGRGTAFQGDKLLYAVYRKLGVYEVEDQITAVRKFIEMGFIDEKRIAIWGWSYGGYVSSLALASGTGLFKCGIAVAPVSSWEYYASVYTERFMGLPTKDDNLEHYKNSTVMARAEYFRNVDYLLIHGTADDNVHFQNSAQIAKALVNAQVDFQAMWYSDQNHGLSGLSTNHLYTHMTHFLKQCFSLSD

[6] = molecular target: T2, IL-12 receptor beta 1-biotin …; assay: ELISA, protein coated in serial dilution, 1 nM IL-12Rβ1-biotin, streptavidin-HRP, OD at 450 nm
Method: as §2, §3, §4

recombinant human FAP [7] = molecular target: T3, recombinant human FAP; assay: SPR, fusion protein captured by anti-human IgG (Fc) on a CM5 chip, human FAP as analyte 1.5625-200 nM, 1:1 binding model
Method: Specifically, the surface of the CM5 chip was activated with a 1:1 mixture of […] NHS (N-hydroxysuccinimide) and […] EDC (1-Ethyl-3-(3-dimethylaminopropyl) carbodiimide), and 25 μg/ml of anti-human IgG (Fc) antibody was immobilized for 400 seconds at a rate of 10 μl/min. The remaining active ester groups were blocked with 1 M ethanolamine. T1.01, T1.02 and T1.03 were diluted to 2 μg/ml and reacted on the CM5 chip immobilized with the anti-human IgG (Fc) antibody. The recombinant human FAP was diluted to 200 nM in 1×HBS-EP+buffer solution and diluted by serial dilution. The diluted recombinant human FAP was reacted at a rate of 30 μl/min. The association and dissociation times were 180 seconds and 400 seconds, respectively. After the dissociation, stabilization was performed for 60 seconds, and then a regeneration was performed for 30 seconds with a 10 mM glycine pH 1.5 solution at a rate of 30 μl/min.

Sequence of IL-12 receptor of human T cells (Q99665 24-862, chain 2 of 2, other chains not shown): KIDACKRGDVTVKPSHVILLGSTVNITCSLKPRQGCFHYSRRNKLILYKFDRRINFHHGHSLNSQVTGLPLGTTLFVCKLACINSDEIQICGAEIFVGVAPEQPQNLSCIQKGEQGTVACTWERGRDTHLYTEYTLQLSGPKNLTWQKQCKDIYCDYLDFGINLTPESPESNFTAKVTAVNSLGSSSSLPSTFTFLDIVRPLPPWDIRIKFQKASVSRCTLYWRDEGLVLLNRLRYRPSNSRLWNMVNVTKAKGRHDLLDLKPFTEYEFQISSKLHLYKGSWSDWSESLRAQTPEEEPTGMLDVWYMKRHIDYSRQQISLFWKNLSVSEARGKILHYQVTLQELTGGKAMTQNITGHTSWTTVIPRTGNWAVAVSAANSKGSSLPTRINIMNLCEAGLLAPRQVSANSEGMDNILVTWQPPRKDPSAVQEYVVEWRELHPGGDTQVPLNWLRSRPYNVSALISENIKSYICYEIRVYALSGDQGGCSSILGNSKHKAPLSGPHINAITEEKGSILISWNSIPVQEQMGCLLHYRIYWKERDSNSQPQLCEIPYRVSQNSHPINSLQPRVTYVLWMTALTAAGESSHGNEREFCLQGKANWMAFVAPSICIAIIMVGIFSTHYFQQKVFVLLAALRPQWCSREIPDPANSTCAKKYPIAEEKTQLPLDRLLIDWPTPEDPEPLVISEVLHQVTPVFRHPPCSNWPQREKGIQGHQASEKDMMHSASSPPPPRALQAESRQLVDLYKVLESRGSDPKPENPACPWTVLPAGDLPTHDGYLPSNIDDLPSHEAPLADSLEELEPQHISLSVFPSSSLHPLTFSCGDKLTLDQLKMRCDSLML

Row | Binder | fold change of the p-STAT4 EC50 with low molecular weight heparin against without, activated human T cells [1] [times] | half maximal effective concentration (EC50) of p-STAT4 (Tyr693), AlphaLISA, activated human T cells [1] [nM] | percent of cells in the positive gate (hFAP-PE) [2] [%] | percent of cells bound [3] [%] | EC50 (read off the curve) [4] [nM] | Kd (recombinant human FAP [5]) [nM] | koff (recombinant human FAP [5]) [s⁻¹] | kon (recombinant human FAP [5]) [M⁻¹ s⁻¹] | binding result [6] | Kd (recombinant human FAP [7]) [nM] | koff (recombinant human FAP [7]) [s⁻¹] | kon (recombinant human FAP [7]) [M⁻¹ s⁻¹]
1 | T1.02 (anti-hu FAP/hu IL-12 mut1, hu IgG1 DANG) (bispecific antibody, Knob-in-hole heterodimer) heavy: QVQLVQSGAEVKKPGASVKVSCKTSRYTFTEYTIHWVRQAPGQRLEWIGGINPNNGIPNYNQKFKGRVTITVDTSASTAYMELSSLRSEDTAVYYCARRRIAYGYDEGHAMDYWGQGTLVTVSSASTKGPSVFPLAPSSKSTSGGTAALGCLVKDYFPEPVTVSWNSGALTSGVHTFPAVLQSSGLYSLSSVVTVPSSSLGTQTYICNVNHKPSNTKVDKKVEPKSCDKTHTCPPCPAPELLGGPSVFLFPPKPKDTLMISRTPEVTCVVVAVSHEDPEVKFNWYVDGVEVHNAKTKPREEQYGSTYRVVSVLTVLHQDWLNGKEYKCKVSNKALPAPIEKTISKAKGQPREPQVYTLPPSRDELTKNQVSLWCLVKGFYPSDIAVEWESNGQPENNYKTTPPVLDSDGSFFLYSKLTVDKSRWQQGNVFSCSVMHEALHNHYTQKSLSLSPGK light: not shown not shown | 5.5 | 0.0565 | 99.8 | ≥ 99 | ~20 | 0.595 | 0.000139 | 235000 | – | – | – | –
2 | T1.12 (anti-hu FAP/null, hu IgG1 DANG) (antibody, One-armed anti-FAP antibody without IL-12; used as the control for IL-12 activity) heavy: QVQLVQSGAEVKKPGASVKVSCKTSRYTFTEYTIHWVRQAPGQRLEWIGGINPNNGIPNYNQKFKGRVTITVDTSASTAYMELSSLRSEDTAVYYCARRRIAYGYDEGHAMDYWGQGTLVTVSSASTKGPSVFPLAPSSKSTSGGTAALGCLVKDYFPEPVTVSWNSGALTSGVHTFPAVLQSSGLYSLSSVVTVPSSSLGTQTYICNVNHKPSNTKVDKKVEPKSCDKTHTCPPCPAPELLGGPSVFLFPPKPKDTLMISRTPEVTCVVVAVSHEDPEVKFNWYVDGVEVHNAKTKPREEQYGSTYRVVSVLTVLHQDWLNGKEYKCKVSNKALPAPIEKTISKAKGQPREPQVYTLPPSRDELTKNQVSLWCLVKGFYPSDIAVEWESNGQPENNYKTTPPVLDSDGSFFLYSKLTVDKSRWQQGNVFSCSVMHEALHNHYTQKSLSLSPGK light: not shown not shown | – | – | 99.3 | ≥ 99 | – | – | – | – | no binding (tested: 10^5 pM) | – | – | –
3 | T1.03 (anti-hu FAP/hu IL-12 mut2, hu IgG1 DANG) (bispecific antibody, Knob-in-hole heterodimer) heavy: QVQLVQSGAEVKKPGASVKVSCKTSRYTFTEYTIHWVRQAPGQRLEWIGGINPNNGIPNYNQKFKGRVTITVDTSASTAYMELSSLRSEDTAVYYCARRRIAYGYDEGHAMDYWGQGTLVTVSSASTKGPSVFPLAPSSKSTSGGTAALGCLVKDYFPEPVTVSWNSGALTSGVHTFPAVLQSSGLYSLSSVVTVPSSSLGTQTYICNVNHKPSNTKVDKKVEPKSCDKTHTCPPCPAPELLGGPSVFLFPPKPKDTLMISRTPEVTCVVVAVSHEDPEVKFNWYVDGVEVHNAKTKPREEQYGSTYRVVSVLTVLHQDWLNGKEYKCKVSNKALPAPIEKTISKAKGQPREPQVYTLPPSRDELTKNQVSLWCLVKGFYPSDIAVEWESNGQPENNYKTTPPVLDSDGSFFLYSKLTVDKSRWQQGNVFSCSVMHEALHNHYTQKSLSLSPGK light: not shown not shown | 4 | 0.147 | 99.3 | ≥ 99 | ~20 | – | – | – | – | 1.3 | 0.000124 | 94900
4 | T1.01 (anti-hu FAP/hu IL-12, hu IgG1 DANG) (bispecific antibody, Knob-in-hole heterodimer: one anti-FAP Fab arm and one single-chain human IL-12 (p40-linker-p35) Fc arm) heavy: QVQLVQSGAEVKKPGASVKVSCKTSRYTFTEYTIHWVRQAPGQRLEWIGGINPNNGIPNYNQKFKGRVTITVDTSASTAYMELSSLRSEDTAVYYCARRRIAYGYDEGHAMDYWGQGTLVTVSSASTKGPSVFPLAPSSKSTSGGTAALGCLVKDYFPEPVTVSWNSGALTSGVHTFPAVLQSSGLYSLSSVVTVPSSSLGTQTYICNVNHKPSNTKVDKKVEPKSCDKTHTCPPCPAPELLGGPSVFLFPPKPKDTLMISRTPEVTCVVVAVSHEDPEVKFNWYVDGVEVHNAKTKPREEQYGSTYRVVSVLTVLHQDWLNGKEYKCKVSNKALPAPIEKTISKAKGQPREPQVYTLPPSRDELTKNQVSLWCLVKGFYPSDIAVEWESNGQPENNYKTTPPVLDSDGSFFLYSKLTVDKSRWQQGNVFSCSVMHEALHNHYTQKSLSLSPGK light: not shown not shown | 9.4 | 0.0145 | 99.8 | ≥ 99 | ~20 | 0.588 | 0.000152 | 258000 | – | – | – | –

Reference: patent US20250144178A1 (KANAPH THERAPEUTICS, published 2025)
